Assay results as given in the nanobody polyreactivity screen of Harvey et al. (2022).

Assay: yeast display, Sf9 membrane polyspecificity reagent, FACS + sequencing; frameworks hold sequencing errors
How it was run: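 Galactose induction of a Saccharomyces cerevisiae BJ5465 synthetic nanobody display library ran 36–48 hours. The cells were then stained for 1 hour at 4 °C with 10% biotinylated, detergent-solubilized Sf9 membrane reagent, pulled down on streptavidin microbeads and FACS-sorted into low and high (top ~1%) gates on expression and reagent-binding fluorescence. Labels for polyreactivity follow the gate of origin.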

Row | Sequence | polyreactivity (PSR sort gate)
1 | QVQLVESAGGLVQAGGSLRLICAASGSNFRRYAMGWYRQAPGKERELVAAITENTTSTNYADSVKGRFTISRDNAKNTVYLQMNSLKPEDTAVYYCAAETFATSGEMYYWGQGTQVTVSS | low polyreactivity
2 | QVQLVESAGGLVQAGGSLRLICADSGSIFSNDAMGWYTQAPGKERELVAAITNGVSTNYADSVKGRFTISRDNAKNTVYLPMNSLIPEDTAVYYCAAVSRSYYNSYNYWGQGTQVTVSS | high polyreactivity
3 | QVQLVESAGGLVQAGGSLRLSCAASGFIINKYTMGWYRQAPGKERELVAAITWSGGTTYYADSVKGRFTISRDNAKNTVYLQMNSLKPEDTAVYYCAAYYYRGRVGAYDYWGQGTQVTVSS | high polyreactivity
4 | QVQLVESAGGLVQAGGSLRLSCAASGFTFGKNSMGWYRQAPGKERELVAAISGSGSRTYYADSVKGRFTISRDNAKNTVYLQMNSLKPEDTAVYYCAAAVTGSYASDYWGQGTQVTVSS | high polyreactivity
5 | QVQLVESAGGLVQAGGSLRLSCAASGGIFDRYAMGWYRQAPGKERELVAAITSGGSTNYADSVKGRFTISRDNAKNTVYLQMNSLKPEDTAVYYCNADLGILSGVDEGPTFREYDYWGQGTQVTLSS | low polyreactivity
6 | QVQLVESAGGLVQAGGSLRLSCAASGGTFSTYAIGWYRQAPGKEREFVAAITRSGTSTYYADSVKGRFTISRDNAKNTVYLQMNSLKPEDTAVYYCAAGVYSFRYDYWGQGTQVTVSS | low polyreactivity
7 | QVQLVESAGGLVQAGGSLRLSCAASGITFWYYTMGWYRQAPGKERELVAAINGRGGSTYYADSVKGRFTISRDNAKNTVYLQMNSLKPEDTAVYYCNAVGIWFQIRLIVPYDYWGQGTQVTVSS | low polyreactivity
8 | QVQLVESAGGLVQAGGSLRLSCAASGITIVRYARGWSRQAPGKERELVAAINRSGGSTYDADSVKGRFTISRDNAKNTVYLQMNSLKPEDTAVYYCAARLYGKYDPPGYYYWGQGTQVTVSS | high polyreactivity
9 | QVQLVESAGGLVQAGGSLRLSCAASGLIFYSYAMGWYRQAPGKERELVASITTRGSSTYYADSVKGRFTISRDNAKNTVYLQMNSLKPEDTAVYYCAADRLYYRYPPDTGYGYWGQGTQVTVSS | low polyreactivity
10 | QVQLVESAGGLVQAGGSLRLSCAASGNMLIGKVMGMYRQAPGKERELVAAITSGGDTYYADSVKGRYTISRDNAKNTVYLQMNSLKPEDTAVYYCAADRPGQPKYEYWGQCTQVTVSS | low polyreactivity
11 | QVQLVESAGGLVQAGGSLRLSCAASGPTFAYNDMGWSRQAPGKERELVAAISWSDGTTYYADSVKGRFTISRDNAKNTVYLQMNSLKPEVTAVYYCAGESYPSEVASYVSEYDYWGQGTQVTVSS | low polyreactivity
12 | QVQLVESAGGLVQAGGSLRLSCAASGRIFRYYAMGWYRQAPGKERELFAAISRSGASTYYADSVKGRFTISRDNAKNTVYLQMNSLIPEDTAVYYCAAGYWPGYSQTYRGGYWGQCTQVTVSS | high polyreactivity
13 | QVQLVESAGGLVQAGGSLRLSCAASGRIFRYYVMGWYRQAPGKEREFVASISGRGASTYYADSVKGRFTISRDNAKNTVYLQMNSLKPEDTAVYYCNADVWLLSYFPEYDYWGQGTQVTVSS | low polyreactivity
14 | QVQLVESAGGLVQAGGSLRLSCAASGRIFSYKAMGWYRQAPGKQRELVAAISYSGGRTYYADSVKGRFTISRDNAKNTVYLQMYSLKPEDTAVYYCAAEAHLAGFYRYYGGYGYDYWGQGTQVTVSS | high polyreactivity
15 | QVQLVESAGGLVQAGGSLRLSCAASGRIFYYNAMGWYRQAPGKERELVAGITSRGGSTYADSVKGRFTISRDNAKNTVYLQMNSLKPEDTAVYYCAAVYRLWGKDYDYWGQGTQVTVSS | high polyreactivity
16 | QVQLVESAGGLVQAGGSLRLSCAASGRILVRNAMGWYRQAPGTERELVAAIRRGTSTNYADSVKGRFTISRDNAKNTVYLQMNSLKPEDTAVYYCAVRAASPYLDGAWRRRYDYWGQGTQVTVSS | low polyreactivity
17 | QVQLVESAGGLVQAGGSLRLSCAASGRTFAYNAMGWYRQAPGKERELVADITSGGSTYYADSVKWRFTISRDNAKNTVYLQMNSLKPEDTAVYYCNKLYRGGYGYWGQGTQVTVSS | high polyreactivity
18 | QVQLVESAGGLVQAGGSLRLSCAASGRTFGKYAMGWYRQAPGKERELVAAITGGGGTKYADSVKGRFTISRDNAKNTVYLQKNSLKPEDTAVYYCAAASGSRRHGYWGQGTQVTVSS | high polyreactivity
19 | QVQLVESAGGLVQAGGSLRLSCAASGRTLRGYAMGWYRQAPGKERELVAAITWSGGSTYYADSVKGRFTISRDNAKNTVYLQMNSLKPEDTAVYYCNARSYPDLYDYWGQGTQVTVSS | high polyreactivity
20 | QVQLVESAGGLVQAGGSLRLSCAASGRTLTGNALGWYRQAPGKESELVAAITARGGSTKYADSVKGRFTISRDNAKNTVYFLMNSLKPEDTAVFYCAAGCWYYLHMDYWGQGTQVTVSS | high polyreactivity
21 | QVQLVESAGGLVQAGGSLRLSCAASGRTLTRYTMGWYRQAPGKERELVAAITSGGSTYYADSVKGRFTISRDNAKNTVYLQKNSLKPEDTAVYYCNARTPWWSFSITEYGYWGQGTLVTVSS | high polyreactivity
22 | QVQLVESAGGLVQAGGSLRLSCAASGSIFAGNVMGWYRQEPGKEWELVAAISRRGGRTYYADSVKGRFTISRDNAKNTVYLQMNSLKPEETAVYYCAARRDPVLCKSDYWGQGTQVTVSS | high polyreactivity

Row | Sequence | polyreactivity (PSR sort gate)
23 | QVQLVESAGGLVQAGGSLRLSCAASGSIFKDYAMGWYRQAPGKERELVAAITSGTSTTYADSVKGRFTISRDNAKYTVYLPMNSLKPDDTAVYYCAADYYLRKTRFESWGQGTQVTVSP | low polyreactivity
24 | QVQLVESAGGLVQAGGSLRLSCAASGSIFPGYAMGWYRQAPVKERELVATITWSGGSTYYADSVKGRFTISRDNAKNSVYLQMNILKPEDTAVYYCNADSNWYYQWNYYGLYDYWGQGTQVTVSS | low polyreactivity
25 | QVQLVESAGGLVQAGGSLRLSCAASGSIFRLNALGWSRQQPGQVRELVAAITWSDSSTYYADSVKGRFTISRDTAKNTVYLQMNSLKPEDTAVSYCAGDPQSYKYDYWGQGTQVTVSS | low polyreactivity
26 | QVQLVESAGGLVQAGGSLRLSCAASGSIFVPNVMGWYRQAPGKERELVATITRSTSTYYADSVKGRFTISRDNAKNTVYLQMNSLKPEDTAVYYCAAVWEWYSKYTRFYYWGQGTQVTVSS | high polyreactivity
27 | QVQLVESAGGLVQAGGSLRLSCAASGSIFVRNAMGWYRQAPGKERELVARISSRGGSTYYADSVKGRFTISRDNAKNTVYLQMISLKPEDTAVYYSNRDRTWQTNDYWGQGTQVTVSS | high polyreactivity
28 | QVQLVESAGGLVQAGGSLRLSCAASGSILYKNAMGWYRQAPGKERELVAAIRSGGSTYYADSVKGRFTISRDNAINTVYLQMNSLKPEDTAVYYCYARTFSHGRYDYWGQGTQVTVSS | low polyreactivity
29 | QVQLVESAGGLVQAGGSLRLSCAASGSTFRYYAMGWSRQAPGKESELVAVISTSGNTYYADSVKGRFTISRDNAKNSVYLQMNSLIPEDTAVYYCAARGVGGQISQEYDYWGKGTQVTVSS | low polyreactivity
30 | QVQLVESAGGLVQAGGSLRLSCAASGSTFVTYDMGWYRQAPGKERELVAAIRYSDGSTYYADSVKGRFTISRDNAKNTVYRQMNSLKPEDTAVYYCAADLGNYDYYGYVRYDYWGQGTQVTVSS | low polyreactivity
31 | QVQLVESAGGLVQAGGSLRLSCAASGSTFYPNAMGWYRQAPGKERELVAAISRGTRTKYADSVKGRFTISRDNAKNTVYLQMNSMKPEDTAVYYCAPLTYQSYWSVDGYYYWGQGTQVTVSS | high polyreactivity
32 | QVQLVESAGGLVQAGGSLRLSCADSGSISTVYAMGWYRPAPGKERELVAAISWSGGYTYYADTVKGRFTISRDNEKNTVYLQMNSVKPEDTAFYYCDAEGYLVGSRWGPCYGDYWGQGTQVTGSS | high polyreactivity
33 | QVQLVESAGGLVQAGGSLRLSCAHSGITYTRYAMGWYRHAPGKESELVAAISSGGRTNYADSVKGRFTISRDNAKNTVYLQMNTLKPEDTAVYYCNAAGHRWYPRYHYWGQGTQVTVSS | high polyreactivity
34 | QVQLVESAGGLVQAGGSLRLSCAPSGSTFYHNVMGWYSPAPGKERELVASIDTGDSTNYADSVKGRFTISRDNAKNTVYLQMNSLKPEDTAVYYCARSQAVYDGWFAKFGYWGQGTQVTVSS | low polyreactivity
35 | QVQLVESAGGLVQAGGSLRLSCASSGSTFQKYAMGWYRQAPGKESELVARISSGGSTTNADYVKGRFTISRDNAKYTVYIQMTSLKPEDTAVYYCAARLVVAQPHQWVVYLNTYYYWGQGTQVTVSS | high polyreactivity
36 | QVQLVESAGGLVQAGGSLRLSCDASISSINAMGWYRQAPGKEREMVAAIRWSGSSTYYADSVKGRFTISRDNAKNTVYLQMNSLKPEDTAVYYCAARWYARSLTRFNYWGQGTQVTVSS | high polyreactivity
37 | QVQLVESAGGLVQAGGSLRLSCYASGRIFPAYAMGWYRQAPGKERELVASIRRGGITYADSVKGRFTISRDNAKNTVYLQMNSLKPEDTAVYYCNADSRGWGYHMDYWGQGTQVTVSS | low polyreactivity
38 | QVQLVESAGGLVQAGGSLSLSCAASGILVYNAMGWYRQAPGKQRELVAAISARGGRTYYADSVKWRFTISRDNAKNTVYLQMNSLKTEDTAVSYCATLETTGVNYWGQGTQVTVSS | high polyreactivity
39 | QVQLVESAGGLVQAGGSLSLSCAASGLTFPWYAMGWYRQAPGKERELVAAISSSSGSTYYADSVKGRFTISRDNAKNTVYLQMNSLKPEDTAVYYCAAGYPGGHYDYWGQGTQVTVSS | high polyreactivity
40 | QVQLVESAGGLVQAGGSLSLSCAATGITFPYVMGWYRQAPGKQRELVAAISRTGTSTYYADSVKGRFTISRDNAKNTVYLQMNSLKPEDTAVYYCAARTQTQVYPAYGYWGQGTQVTVSS | high polyreactivity
41 | QVQLVESAGGLVQAGGTLRLSCAATGRIVYLNAMGWYRQAPGKERELVAAISGSTGSTYYADSVKGRFTISRDNAKNTVYLQMMSLKPEDTAVYYCNAGGVYDEFNYWGQGTQVTVSS | low polyreactivity
42 | QVQLVESAGGLVQAGVSLRLSCAASGSIYPGSAMRWYRQAPGNERELVAAITFGGGITYYADSVKGRFTISRDNAKYTVYLQMNSLKPEDSAVYYCAAKSPRILLDYWGQGTQVTVSS | low polyreactivity
43 | QVQLVESAGGVVQAGGSLRLSCAPSGRTFYPYVMGCYRTAPGKERELVARIRWSGSSTYYADSEKGRFTISRDNAKNTVYLQMNSLKPEDTAVYYCNARPSWYVFGSSVHSGMGYWGQGTQVTVSS | high polyreactivity
